The series can be described thus: label from the status in PepcDB records.
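Note: failed if final PepcDB status was selected cloned or expressed and not failed if soluble or beyond.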

For “MKKLPLVFSGCLLGLAGAGNLILDTLPVLSHLFSLIGLVLWIYFLILHLFNWKETKQELTKPPLLSGMATFPMAGMILSTYVFRVFSYLPLVAQGIWWFSFLLDLTLIAGFTIKFACPGRRVHATPSWTVLYVGIAVAALTYPLVGIIEIAYATLSFGFLLTFYLYPLIYSDLKKHPLPLALLGQEGIYCAPFSLLLASLVRVGGTSLPTWVLIVMILASQSFFFFVLTRLPNILKQGFQPAFSALTFPTIITATSLKMAQGILKLPFLDYLVLAETIICLTILFFVLGAYLIWLRKKV”, the protein production entry is on record as “failed”.
In the case of “MKKLSGIIVLLLAGAALYLALKTSPIDPLAWDAPAAPQMTGVLEPNDTLMKAELLGQGQLHGPEDTAVDSQGRVYAGLADGRVVRLDASGKVETFVDTGGRPLGMDFDAAGNLILADAWKGLLRIDPQGKVETLATEADSVPFAFTDDLDIASDGRIYFSDASSKFHQPDYILDLLEARPHGRLLRYDPSTGKTEVLLKDLYFANGVALSANEDFVLVNETYRYRITRYWLKGEKAGQHEVFIDNLPGLPDNLQGDRKGTFWVALPTPRKADADFLHRHPWLKAQLAKLPRMFLPKPTAYGLVIAIDEQGRIVRSLHDTSGHHLRMITSAKPVGDQLYFGSLENDRIGRLAIPLEHHHHHH”, the protein production entry is recorded as “not failed”.
For “MKKLVLTGAAGRLGSYLREPLTALCDTLVSTDIVDDIGTLYAGETYVKADLAQMDQIAPVLEGADMVVHFGAIVDEKPFEELLGPNFVGSYNIWEAGYKAGVKRIVYASSIHAVGMHLKSDFIGIDAEHRPDTFYGLAKCFTEDLGRMYWDKRGLESVHLRILSCAQVNNTRALGSWLSYPDLIQLVTRAIDTPSVGFSIIYGVSNNDRAPVDNAKASFLGYRPIDNAEVYAAEVLAQAEPVDTTDPGQMCHGGPFAKVDLGQSGLAQMNVVNDKKQT” the value was “failed”.
For “MKKPSSTPAPRLASLDILRGFDLFLLVFFQPVLWTLAHQLNLPWLNSILFQFDHEVWEGFRFWDLVMPLFLFMTGASMPFSFSKFKDNPDKGPVYRKIIKRFILLFIFGMIVQGNLLGLDPKHLYLYSNTLQAIATGYLIAAIIQLHCNFRWQLIVTALLLLIYWIPMTFLGDFTPEGNFAEKVDRLVLGHFRDGVFWNEDGSWSFSAHYNYTWIWSSLTFGATVMLGAFAGKIMKAGKDNRRKVVQTLLIIGISLIAFSLIWSLQMPIIKRLWTSSMTLFSGGLCFLLMGAFYYRIDYKGHSRGLNWLKIYGMNSITAYILGEVINFRCIAASVSYGLEQYLGGYYQVWLSFANYLIVFLILRIMYRQKIFLKI” the value was “failed”.
As to “MKKQELIHLHGLLAQVQNHYEAESGTEVDHDEYEELGVKPTSIHKSKTDHKAAVFAIADGIASEMADETKEPVSAAADLEHHHHHH”, the protein production result is “not failed”.
With “MKKQSLVATSLLAAFITGACTADTNIQAKPIVSQVKAKKLIKPNVLFIAVDDLRVQYGPYDFDKAITPNIDRLVNQGVAFTQAYSNVPVCGASRASMLTGVRPTINRFVAFESADKVAPWAPSIAKVFSDNGYTTYSLGKIFNNLTDHANDWSEFPWRPEGAKNEDSTSGNKKQASLLSRHDYVTSDGVAMAKKGIKNHPAFEKADVVDDAYKNGKIAKRAISDLKRLKKAGKPFFLAVGLKKPHLPFNAPSKYWDLYDESTIELTKIPLKAKDSPSQSDHNWNELRNYGHDGAMPKKGKMSDEMARKLIHGYHAATSYSDALIGNILTELESLGLEENTIVVLWGDHGWSLGEHTHWAKHSSYDVTNHIPLIIKVPGMTNGEFSKGLVESVDIFPTLTQLAGLPAPSSLQGDSLVPMLKNPQATVNDAVYPRWKNADSIRTPNYMYTEWRNKKNNKVIARMLFDHRVDPRETINVAENFKYAQVVVDLHNQLAAHIAQVEK”, the protein production entry was “failed”.
Consider “MKKSKRKNAQAQEAQETEVLVQEEAEELPEFPEGEPDPDLEDPDLTLEDDLLDLPEEGEGLDLEEEEEDLPIPKISTSDPVRQYLHEIGQVPLLTLEEEVELARKVEEGMEAIKKLSEITGLDPDLIREVVRAKILGSARVRHIPGLKETLDPKTVEEIDQKLKSLPKEHKRYLHIAREGEAARQHLIEANLRLVVSIAKKYTGRGLSFLDLIQEGNQGLIRAVEKFEYKRRFKFSTYATWWIRQAINRAIADQARTIRIPVHMVETINKLSRTARQLQQELGREPTYEEIAEAMGPGWDAKRVEETLKIAQEPVSLETPIGDEKDSFYGDFIPDEHLPSPVDAATQSLLSEELEKALSKLSEREAMVLKLRKGLIDGREHTLEEVGAFFGVTRERIRQIENKALRKLKYHESRTRKLRDFLD”, for which the protein production entry is given as “not failed”.
As for “MKKSNIKTLEQFKDQNYGKKGTAKRDSLEMGYDTFKIGALIQEARIEKGMTQEELAIKCGTTKSYISRIENNIKEVRISTLQKIVELGFGGQLQLSIKFLEHHHHHH”, the protein production result is on record as “not failed”.
As for “MKKTGWGILGAVAAFTGYAYWSTKHLTVTDYEILSDKIPAEWDGATFVQLSDLHSASFGLYNNPLLSIVNELAPDAVFLTGDMIDGDESPFVTMAVVRKLAKEFPVFYVSGNHEGRSAFYEDFKADMEKHHVAVLENERYFLRKDGAAIMVAGVKDPRFVRDDWAEKELPKQVWEEEALKEALDEATANLSPDYFTILLAHRPEFWPLYQAYPVDLVLSGHAHGGQFRLPLTEGLFAPGQGFMPKWTAGLHSAGGKSLIVSRGLGNVTKLPRLFNDPEIIRITLKAKGDARENLEHHHHHH”, the protein production result is listed as “failed”.
With “MKKTLIALMLGTISFTTFANDYLPSGGYETLETRSGQLTFENGFEHGVPTNKTSQKLFDELDYQRAVQGYIWATPIVSFYKWKNDHYQTWGTENGQLVYQAGYESKLGGLTYNTSTPYLIGYMNLNNGPIVINLPDTQLRGAVHNMWQIGKEQMTKPGKYVIYKAGDVAPKVKGATLIAMDTNDFFFGVRLMNKDAKVRSTMMNSIQKGITDINGNQLTNKGIYHVKRGIDHKQPRGMEFWEVVNQAIQANPVQERDRMMMDMLRPLGIEKGKPFIPTPKQQSLLKEAAIVGEAMTKNIDFNKTGRLDHAEYGPKGNPWEIATASTPNQDRNNGMDLDGRAAWFYEAVTNDIAMHGMDNGGWGQVYLDNYYSGEKDHGLDGGKHYTLTIKNPNTYADLFWTITVYNVENRAIIENDLGRADVGSNIKGSVYNKDGSITLHFSPKKPKGVAEANWVQTNEKEGWFVYFRAYSPKKAFVDEEPKTLLPNFEEVK”, the protein production result is “failed”.
As to “MKKTRRILLGLALIIGLSVGAGCRSTASKSKTANASQSATTRTVTDMAGTKVKIPTKVTRVADLWHANNQVVLLLGGQKKLVATTQMIKQSPWFKTIDPGISRVTAPFAGDDLQTEELLKAKPDVVIAADTAQVKQARKAKIPTINAMYQTFAGLRQSVNLTAQVLGGTAPKIAKAYQKTLTTNLNDVKNRLKDVTFKPKVLHFVNATNLNQVDGTGTIVNEWIKAAGGQNALKQKGNMISVTTETLAKSDPDVIIVGSATTAEARAALKKNAVLSKLTAVKKNRVYGNPQGTFPWDRYSAEEALQVLWAAKKLHPDQFQDLNMVAKTKAFYQQFYHYQLSTAQANRLLNGASSPK”, the protein production result is on record as “failed”.
With “MKKVCLSLLMGLMVQMTFGQTLEKMQWFNEPEQWEIKNNVLSMSVTPQSDYWRISHYGFTVDDAPFYYATYGGEFEAKVKVVGEYKERFDQAGLMLRIDHENYIKAGIEFVDGKFNLSTVVTHKTSDWSVITLDKTVPYIWIKAVRRLDAVEIFYSFDDKTYTLMRNAWLQDHIPVKVGLMAACPDGSGFNAKFEYFQVKHLPDQRRVEWLKKNAELEHHHHHH”, the protein production result is on record as “failed”.
“MKKVIGAATATVFGLGAFTTTATAETIVTADVLNVREKPTTESKVVEKVKNGEELKVINTEDGWSKIELNGKEVFVSSEFTKDIYHVTADLLNVRSESNTESKILGRLKKDDVIESTNQVKDGWLQFEYKGKTAYVNVSFLSSKAPIEKKADEKTKQVAKVQKSVKAKEEAKTQKITKAKETIKPKEEVKVQEVAKPKEEVKVQEVAKPKEEVKVQEVAKPKEEVKVQEVVKPKEEVKVQEVVKPKEEVKVQEVAKAKEEAKVQEIAKAKEEAKAQEIAKAKEEAKAQEIAKAKEEAKAQEIAKAKEEAKAQEIAKAKEEAKAQEIAKAKEEAKAQEIAKAKEEAKAQEIAKAKEEAKAQEIAKAKEEAKAQEIAKAKEEAKEREIAKAKEEAKAREIAKAKEEEKAREALKAKEESKNNVQSAKRELTVVATAYTADPSENGTYGGRVLTAMGHDLTANPNMRIIAVDPKVIPLGSKVWVEGYGEAIAGDTGSAIKGNRIDVLMGSKSKAMNWGRQTVKVKILLEHHHHHH”: the protein production entry is “failed”.
For the sequence “MKKWFPALLFSLCVSGESSAWNHNIVFYSLGNVNSYQGGNVVITQRPQFITSWRPGIATVTWNQCNGPEFADGSWAYYREYIAWVVFPKKVMTQNGYPLFIEVHNKGSWSEENTGDNDSYFFLKGYKWDERAFDAGNLCQKPGETTRLTEKFDDIIFKVALPADLPLGDYSVTIPYTSGIQRHFASYLGARFKIPYNVAKTLPRENEMLFLFKNIGGCRPSAQSLEIKHGDLSINSANNHYAAQTLSVSCDVPANIRFMLLRNTTPTYSHGKKFSVGLGHGWDSIVSVNGVDTGETTMRWYKAGTQNLTIGSRLYGESSKIQPGVLSGSATLLMILP”, the protein production result was “failed”.
For “MKLAKLIPKRFFIRSKDRSTVSKSPTAFSFGSASSSSGQDCKNSGGDGGGGSVTPTSILPEVPSPYSYVEILQAFKLIDRDNDGAVSRHDLESLLSRLGPDPLTEEEINVMLKEVDCDGDGTIRLEELASRVVSLDPARDSTELKETFEFFDADRDGLISADELLRVFSTIGDERCTLDDCKRMIADVDEDGDGFVCFTEFSRMMDLQR” the value was “failed”; for “MKLALITDTSAYLPEAIENHEDVYVLDIPIIIDGKTYIEGQNLTLDQYYDKLAASKELPKTSQPSLAELDDLLCQLEKEGYTHVLGLFIAAGISGFWQNIQFLIEEHPNLTIAFPDTKITSAPQGNLVRNALMCSREGMDFDVIVNKIQSQIEKIEGFIVVNDLNHLVKGGRLSNGSAIIGNLLSIKPVLHFNEEGKIVVYEKVRTEKKALKRLAEIVKEMTADGEYDIAIIHSRAQDKAEQLYNLLAKAGLKDDLEIVSFGGVIATHLGEGAVAFGITPKN”, “not failed”.
In the case of “MKLDDLNLFRLVVENGSYTATSRKTMIPVATITRRIQALEDSVNLRLLNRHARKLSLTEAGERFYHECSPLLQRLTSTAEEITDDCRGASGKIKISAPYNLTKRMMMPMFNDFMKKYPDINIELTTENNADQLDPTEWDVIFRVGPQRDSSLIARKIGEVKDILVASQDYLAANPAPNHAEELSNHSLLKGYPLIKWTLINSKGESVVNVERGRFQANALNVVRSACSEGLGITLMPDVMIKEYIESGELLRVLPDWSANPRDIYMLYNHKDHLPEKVRLFIDFVIAYNIH”, the protein production entry is “failed”.
Take “MKLDWNGIDTVLLDMDGTLLDRHFDDHFWLEHVPKRYAAQNGIPLDEAKKLLYALFRSQERTLNWTDLDYWSERLGLDIPVLKQEIDHLIAVHPGVVEFLVFLRRHGKQAWLVTNAHGKTLSLKMRKTRLGPYFTGIISAHDLGLPKEDVRFWEKLQERVPYEPSRTLLGEDSETNLGTAEEYGIAHLIYVSRYSSTVTPTASDRYASIHYFTQLIPAAHTDET”: the protein production result is reported as “failed”.
As for “MKLEIGYNHPFEIRKERYESDHVCNFSVLYISDLHLTVFSKDICTRLSKCIQELNPTIIILGGDYIDCRNGWDYLSTFFKFLSARKNVFSIAGNHDYFYGIDEIKKLIESNNIHWLENQSAVVNIQEYNILLTGNNETQSSIPADFNILCLHKPVSLDAFKIPYHIAFAGHLHGCQCVFWQNENGLYPGRFFYTFNFLRRQVKNCLYLISKGLGDTLPIRFNCKKDIIFVEIKNNSNKLEHHHHHH”, the protein production result was “failed”.
The value for “MKLERILPFSKTLIKQHITPESIVVDATCGNGNDTLFLAEQVPEGHVYGFDIQDLALENTRDKVKDFNHVSLIKDGHENIEHHINDAHKGHIDAAIFNLGYLPKGDKSIVTKPDTTIQAINSLLSLMSIEGIIVLVIYHGHSEGQIEKHALLDYLSTLDQKHAQVLQYQFLNQRNHAPFICAIEKIS” was “failed”.
